# Reference: IntAct's records for PubMed 18335997
# B1: Hemojuvelin (Homo sapiens), Q6ZVN8 (parent)
# chain: MGEPGQSPSPRSSHGSPPTLSTLTLLLLLCGHAHSQCKILRCNAEYVSSTLSLRGGGSSGALRGGGGGGRGGGVGSGGLCRALRSYALCTRRTARTCRGDLAFHSAVHGIEDLMIQHNCSRQGPTAPPPPRGPALPGAGSGLPAPDPCDYEGRFSRLHGRPPGFLHCASFGDPHVRSFHHHFHTCRVQGAWPLLDNDFLFVQATSSPMALGANATATRKLTIIFKNMQECIDQKVYQAEVDNLPVAFEDGSINGGDRPGGSSLSIQTANPGNHVEIQAAYIGTTIIIRQTAGQLSFSIKVAEDVAMAFSAEQDLQLCVGGCPPSQRLSRSERNRRGAITIDTARRLCKEGLPVEDAYFHSCVFDVLISGDPNFTVAAQAALEDARAFLPDLEKLHLFPSDAGVPLSSATLLAPLLSGLFVLWLCIQ
# partner: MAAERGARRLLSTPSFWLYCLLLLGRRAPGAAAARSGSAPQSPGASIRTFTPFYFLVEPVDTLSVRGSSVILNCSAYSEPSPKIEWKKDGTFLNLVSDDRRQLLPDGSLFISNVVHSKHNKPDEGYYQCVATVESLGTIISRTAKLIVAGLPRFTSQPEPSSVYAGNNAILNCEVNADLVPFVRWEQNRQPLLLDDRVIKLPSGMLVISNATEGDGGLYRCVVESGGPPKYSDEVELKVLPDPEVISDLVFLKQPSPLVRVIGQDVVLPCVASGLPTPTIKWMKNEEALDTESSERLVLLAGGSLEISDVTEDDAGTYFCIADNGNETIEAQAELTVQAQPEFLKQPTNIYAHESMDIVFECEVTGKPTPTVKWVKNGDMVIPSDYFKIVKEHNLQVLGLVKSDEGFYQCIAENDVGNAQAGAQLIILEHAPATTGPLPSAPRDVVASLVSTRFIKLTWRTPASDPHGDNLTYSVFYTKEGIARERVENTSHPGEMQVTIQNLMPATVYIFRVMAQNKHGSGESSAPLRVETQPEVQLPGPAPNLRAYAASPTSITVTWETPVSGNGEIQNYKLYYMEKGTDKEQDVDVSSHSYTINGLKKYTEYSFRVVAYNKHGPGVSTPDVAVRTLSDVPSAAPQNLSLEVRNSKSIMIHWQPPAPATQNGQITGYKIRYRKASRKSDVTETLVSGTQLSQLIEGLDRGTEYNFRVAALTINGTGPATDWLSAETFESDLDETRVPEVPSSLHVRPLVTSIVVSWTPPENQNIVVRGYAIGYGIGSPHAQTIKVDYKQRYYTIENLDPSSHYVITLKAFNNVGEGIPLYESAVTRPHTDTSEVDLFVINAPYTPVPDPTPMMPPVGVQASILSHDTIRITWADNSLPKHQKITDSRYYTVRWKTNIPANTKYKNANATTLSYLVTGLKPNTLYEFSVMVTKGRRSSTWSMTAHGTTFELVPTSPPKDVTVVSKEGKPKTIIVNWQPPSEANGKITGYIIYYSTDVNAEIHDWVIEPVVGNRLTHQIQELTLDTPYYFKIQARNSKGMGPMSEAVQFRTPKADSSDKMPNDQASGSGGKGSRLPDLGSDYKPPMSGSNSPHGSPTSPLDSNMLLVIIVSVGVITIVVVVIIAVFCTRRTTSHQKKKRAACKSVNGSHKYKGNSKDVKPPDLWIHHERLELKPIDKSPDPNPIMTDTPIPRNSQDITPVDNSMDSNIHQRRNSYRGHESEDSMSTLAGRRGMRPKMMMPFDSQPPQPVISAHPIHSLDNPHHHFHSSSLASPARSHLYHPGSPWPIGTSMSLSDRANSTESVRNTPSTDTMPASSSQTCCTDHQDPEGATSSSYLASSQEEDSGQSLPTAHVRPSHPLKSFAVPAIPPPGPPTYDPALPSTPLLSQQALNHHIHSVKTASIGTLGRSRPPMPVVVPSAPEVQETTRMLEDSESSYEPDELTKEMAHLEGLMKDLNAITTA
# Variants of: B1
# Settings: with neo1_human NEO1, Q92859
row,effect of a mutation on the interaction,Variant
1,decreasing interaction strength,MGEPGQSPSPRSSHGSPPTLSTLTLLLLLCGHAHSQCKILRCNAEYVSSTLSLRGGGSSGALRGGGGGGRGGGVGSGGLCRALRSYALCTRRTARTCRGDLAFHSAVHGIEDLMIQHNCSRQGPTAPPPPRGPALPGAGSGLPAPDPCDYEGRFSRLHGRPPGFLHCASFGAPHVRSFHHHFHTCRVQGAWPLLDNDFLFVQATSSPMALGANATATRKLTIIFKNMQECIDQKVYQAEVDNLPVAFEDGSINGGDRPGGSSLSIQTANPGNHVEIQAAYIGTTIIIRQTAGQLSFSIKVAEDVAMAFSAEQDLQLCVGGCPPSQRLSRSERNRRGAITIDTARRLCKEGLPVEDAYFHSCVFDVLISGDPNFTVAAQAALEDARAFLPDLEKLHLFPSDAGVPLSSATLLAPLLSGLFVLWLCIQ [D172A]
